Km for SRSF1 (KSR), steady-state phosphorylation of SRSF1 and kcat/KSR (steady-state kinetics with maximum viscosity effect) data for one substance are collected here from publication PMC3718016.

Some targets named below: SRPK1(ΔNCT) (UniProt Q96SB4); SRPK1(ΔSα2) (UniProt Q96SB4); SRPK1(ΔSα1) (UniProt Q96SB4); SRPK1(ΔNNT) (UniProt Q96SB4); SRPK1(ΔSINT) (UniProt Q96SB4).
In test [1] the target is SRPK1(ΔN), SRPK1 without the N-terminus (UniProt Q96SB4).
Test [2] deals with SRPK1(ΔS), SRPK1 without the spacer insert domain (UniProt Q96SB4).

For the substance “SR protein splicing factor 1 (SRSF1) (from UniProt Q07955 1-248) (natural protein)”, the Km for SRSF1 (KSR), steady-state phosphorylation of SRSF1 was determined as 0.41 µM with SRPK1(ΔNCT), 0.44 µM in test [1], 0.14 µM in test [2] and 0.038 µM with SRPK1(ΔNNT). Also, the kcat/KSR (steady-state kinetics with maximum viscosity effect) with SRPK1(ΔSα2) came to 6.9e+06 M⁻¹ s⁻¹; with SRPK1(ΔSα1) it was 2.2e+06 M⁻¹ s⁻¹; in the test with SRPK1(ΔSINT) it was 5.3e+06 M⁻¹ s⁻¹.
